Columns and labels:
Settings in all cases: source organism: Human papillomavirus 16
HLA-A*03:01 [1] = assay: IEDB peptide-MHC binding, purified MHC/competitive/radioactivity; ≥ and ≤ were set here for values at or beyond the usual limits of such assays
HLA-A*11:01 [2] = assay: as above
HLA-A*24:02 [3] = assay: as above
HLA-A*01:01 [4] = assay: IEDB peptide-MHC binding, purified MHC/competitive/radioactivity; filed as Kd, often an IC50 or EC50 that approximates it; ≥ and ≤ were set here for values at or beyond the usual limits of such assays
HLA-A*01:01 [5] = assay: IEDB peptide-MHC binding, purified MHC/competitive/radioactivity; ≥ and ≤ were set here for values at or beyond the usual limits of such assays
HLA-A*03:01 [6] = assay: IEDB peptide-MHC binding, purified MHC/competitive/radioactivity; filed as Kd, often an IC50 or EC50 that approximates it; ≥ and ≤ were set here for values at or beyond the usual limits of such assays
HLA-A*24:02 [7] = assay: as above
HLA-A*11:01 [8] = assay: as above

AMFQDPQER
IC50 (HLA-A*03:01 [1]): 0.29 µM | IC50 (HLA-A*11:01 [2]): 0.012 µM

AVCDKCLK
IC50 (HLA-A*11:01 [2]): 0.496 µM

CYSLYGTTL
IC50 (HLA-A*24:02 [3]): 0.137 µM

DIILECVYCK
IC50 (HLA-A*11:01 [2]): 0.28 µM

EIDGPAGQA
Kd (HLA-A*01:01 [4]): 3.24 µM

ETTDLYCY
IC50 (HLA-A*01:01 [5]): 0.32 µM

FQDPQERPRK
IC50 (HLA-A*11:01 [2]): 0.453 µM

FYSRIREL
IC50 (HLA-A*24:02 [3]): 0.461 µM

GIVCPICSQK
IC50 (HLA-A*11:01 [2]): 0.098 µM

GTTLEQQYNK
IC50 (HLA-A*11:01 [2]): 0.006 µM

HLDKKQRFH
IC50 (HLA-A*03:01 [1]): 0.068 µM

HVDIRTLED
Kd (HLA-A*01:01 [4]): 3.76 µM

IILECVYCK
IC50 (HLA-A*11:01 [2]): 0.125 µM | Kd (HLA-A*03:01 [6]): 3.7 µM

ISEYRHYCY
IC50 (HLA-A*01:01 [5]): 0.049 µM | IC50 (HLA-A*11:01 [2]): 0.166 µM

IVYRDGNPY
IC50 (HLA-A*11:01 [2]): 0.021 µM

LLIRCINCQK
IC50 (HLA-A*03:01 [1]): 0.092 µM | IC50 (HLA-A*11:01 [2]): 0.024 µM

LLRREVYDF
Kd (HLA-A*24:02 [7]): 4.78 µM

MHQKRTAMF
Kd (HLA-A*24:02 [7]): 4.49 µM

QAEPDRAHY
Kd (HLA-A*01:01 [4]): 2.79 µM

QQLLRREVY
Kd (HLA-A*11:01 [8]): 1.19 µM

RAHYNIVTF
IC50 (HLA-A*24:02 [3]): 0.29 µM

RFHNIRGRW
IC50 (HLA-A*24:02 [3]): 0.22 µM

SLYGTTLEQ
Kd (HLA-A*03:01 [6]): 3.75 µM

TTDLYCYEQ
Kd (HLA-A*01:01 [4]): 3.76 µM

TTLEQQYNK
IC50 (HLA-A*11:01 [2]): 0.006 µM

VYDFAFRDL
IC50 (HLA-A*24:02 [3]): 0.36 µM

YSKISEYRHY
IC50 (HLA-A*01:01 [5]): 0.147 µM

From the Immune Epitope Database (IEDB)
